# Changes are numbered by the printed parent chain. Names may count otherwise.
# T1: CD19-ECD-GGSG-NLuc-AcV5 (human)
# T1 construct: also called CD19-GGSG-NLuc-AcV5; Flag-CD19-GGSG-NLuc-AcV5
# T1 chain: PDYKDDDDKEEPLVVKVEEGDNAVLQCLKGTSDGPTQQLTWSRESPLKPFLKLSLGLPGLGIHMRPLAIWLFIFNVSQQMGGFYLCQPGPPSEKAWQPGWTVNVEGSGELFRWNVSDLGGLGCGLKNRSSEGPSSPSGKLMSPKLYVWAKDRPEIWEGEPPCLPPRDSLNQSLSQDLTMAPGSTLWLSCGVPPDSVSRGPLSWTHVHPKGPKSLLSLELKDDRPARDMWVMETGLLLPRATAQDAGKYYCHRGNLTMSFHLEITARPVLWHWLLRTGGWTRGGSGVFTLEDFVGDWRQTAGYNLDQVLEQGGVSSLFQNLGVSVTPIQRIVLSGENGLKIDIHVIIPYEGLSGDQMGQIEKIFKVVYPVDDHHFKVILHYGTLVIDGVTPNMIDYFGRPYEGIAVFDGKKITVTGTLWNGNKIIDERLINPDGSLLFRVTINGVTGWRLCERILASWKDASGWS
# B1: CD8SP-FMC63-vL-V5-[hTCRb-KACIAH]-F-P2A-SP-FMC63-vH-Myc-[hTCRa-CSDVP]-F-F2A-PAC (010616-C01)[SEQ ID NO:1200] (other)
# TCR beta: DIQMTQTTSSLSASLGDRVTISCRASQDISKYLNWYQQKPDGTVKLLIYHTSRLHSGVPSRFSGSGSGTDYSLTISNLEQEDIATYFCQQGNTLPYTFGGGTKLEITGKPIPNPLLGLDSTGSGEDLKNVFPPEVAVFEPSKAEIAHTQKATLVCLATGFYPDHVELSWWVNGKEVHSGVCTDPQPLKEQPALNDSRYCLSSRLRVSATFWQNPRNHFRCQVQFYGLSENDEWTQDRAKPVTQIVSAEAWGRADCGITSASYHQGVLSATILYEILLGKATLYAVLVSALVLMAMVKRKDSRG
# TCR alpha: EVKLQESGPGLVAPSQSLSVTCTVSGVSLPDYGVSWIRQPPRKGLEWLGVIWGSETTYYNSALKSRLTIIKDNSKSQVFLKMNSLQTDDTAIYYCAKHYYYGGSYAMDYWGQGTSVTVSSEQKLISEEDGSGIQNPDPAVYQLRDSKSSDKSVCLFTDFDSQTNVSQSKDSDVYITDKCVLDMRSMDFKSNSAVAWSNKSDFACANAFNNSIIPEDTFFPSSDVPCDVKLVEKSFETDTNLNFQNLSVIGFRILLLKVAGFNLLMTLRLWSS
# notes: Polyprotein PRT 3435; also called 102615-C08
# B2: CD8SP-FMC63-vL-[hTCRb-S57C-opt]-F-P2A-SP-FMC63-vH-Myc-[hTCRa-CSDVP]-F-F2A-PAC (other)
# TCR beta: DIQMTQTTSSLSASLGDRVTISCRASQDISKYLNWYQQKPDGTVKLLIYHTSRLHSGVPSRFSGSGSGTDYSLTISNLEQEDIATYFCQQGNTLPYTFGGGTKLEITEDLKNVFPPEVAVFEPSEAEISHTQKATLVCLATGFYPDHVELSWWVNGKEVHSGVCTDPQPLKEQPALNDSRYCLSSRLRVSATFWQNPRNHFRCQVQFYGLSENDEWTQDRAKPVTQIVSAEAWGRADCGFTSESYQQGVLSATILYEILLGKATLYAVLVSALVLMAMVKRKDSRG
# TCR alpha: B1 TCR alpha
# notes: Polyprotein PRT 12438; also called 110916-P02
# B3: CD8SP-FMC63-vL-V5-[hTCRb-KACIAH]-F-P2A-SP-FMC63-vH-[GSG-hTCRa-T48C-opt]-F-F2A-PAC (other)
# TCR beta: B1 TCR beta
# TCR alpha: EVKLQESGPGLVAPSQSLSVTCTVSGVSLPDYGVSWIRQPPRKGLEWLGVIWGSETTYYNSALKSRLTIIKDNSKSQVFLKMNSLQTDDTAIYYCAKHYYYGGSYAMDYWGQGTSVTVSSGSGIQNPDPAVYQLRDSKSSDKSVCLFTDFDSQTNVSQSKDSDVYITDKCVLDMRSMDFKSNSAVAWSNKSDFACANAFNNSIIPEDTFFPSPESSCDVKLVEKSFETDTNLNFQNLSVIGFRILLLKVAGFNLLMTLRLWSS
# notes: Polyprotein PRT 12436; also called 110916-M04
# B4: CD8SP-FMC63-vL-V5-[hTCRb-KACIAH]-F-P2A-SP-FMC63-vH-Myc4-[hTCRα-SD]-F-F2A-PAC (other)
# TCR beta: B1 TCR beta
# TCR alpha: EVKLQESGPGLVAPSQSLSVTCTVSGVSLPDYGVSWIRQPPRKGLEWLGVIWGSETTYYNSALKSRLTIIKDNSKSQVFLKMNSLQTDDTAIYYCAKHYYYGGSYAMDYWGQGTSVTVSSEQKLISEEDLGSGIQNPDPAVYQLRDSKSSDKSVCLFTDFDSQTNVSQSKDSDVYITDKTVLDMRSMDFKSNSAVAWSNKSDFACANAFNNSIIPEDTFFPSSDSSCDVKLVEKSFETDTNLNFQNLSVIGFRILLLKVAGFNLLMTLRLWSS
# notes: Polyprotein PRT 12444; also called 120916-R01
# B5: CD8SP-FMC63-vL-[hTCRb-R18A22]-F-P2A-SP-FMC63-vH-Myc4-[hTCRa-SD]-F-F2A-PAC (other)
# TCR beta: B2 TCR beta with E125R, S129A, C164S
# TCR alpha: B4 TCR alpha
# notes: Polyprotein PRT 12439; also called 112116-R08
# B6: CD8SP-FMC63-vL-[hTCRb-R18]-F-P2A-SP-FMC63-vH-Myc4-[hTCRa-SD]-F-F2A-PAC (other)
# TCR beta: B2 TCR beta with E125R, C164S
# TCR alpha: B4 TCR alpha
# notes: Polyprotein PRT 12442; also called 112116-U08
# Target: T1, CD19-ECD-GGSG-NLuc-AcV5
# Assay: NLuc binding assay, SIR on Jurkat-NFAT-GFP cells
row,Binder,CD19-GGSG-NLuc (RLU)
1,B1,6840 RLU
2,B2,2180 RLU
3,B3,20500 RLU
4,B4,2660 RLU
5,B5,7570 RLU
6,B6,3910 RLU

# Reference: US20260167693A1 (ANGELES THERAPEUTICS, published 2026)
